Numbered stars: 1 amine (or outer) side, 2 acyl side, 3 side chain; on linkers, the order of the positions; unused ones are H or OH. Bridge positions count the residues as written; N and C are the ends. Square brackets hold non-standard residues; d marks the D form. Ends that are not written are not given here. CO = O=C([*:1])[*:2]; Nlys = NCCCCNCC(=O)O
B1: backbone cyclic peptide 4×4MyDI (Formula IV, m=4, n=4, Z=Trp) (peptide)
peptide: W[Nlys]RDVL[Nlys]GT
modifications: bridge 2-7 via CO; also: backbone cyclization: two amine-terminated 4-methylene arms on Gly2 and Gly7 joined by a urea bond

target: MyD88, endogenous, in human cell lines (HeLa, U937, THP-1) (human, UniProt Q99836 1-296); assay: cell-based or functional assay
Sequence (Q99836 whole entry): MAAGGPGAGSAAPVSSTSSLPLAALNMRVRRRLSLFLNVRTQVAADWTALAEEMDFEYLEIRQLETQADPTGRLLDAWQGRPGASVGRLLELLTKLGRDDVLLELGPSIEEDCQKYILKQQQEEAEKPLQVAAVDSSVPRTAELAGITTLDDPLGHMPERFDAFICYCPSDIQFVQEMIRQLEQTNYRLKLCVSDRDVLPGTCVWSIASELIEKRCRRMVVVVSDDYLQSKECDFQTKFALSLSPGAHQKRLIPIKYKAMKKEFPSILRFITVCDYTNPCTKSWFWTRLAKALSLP

Percent p65 nuclear translocation in HeLa cells, IL-1β	Binder
27%	B1
20%	RDVLPGT [MyD88 inhibitor linear peptide RDVLPGT]
91%	PTDLVRG [scrambled version of the linear MyD88 inhibitor peptide (PTDLVRG)]

Reference: patent publication US20190185516A1 (YISSUM RESEARCH DEVELOPMENT COMPANY OF THE HEBREW …, published 2019)
